The values that follow are results of earlier work, collected in paper PMC3563353.

For this data set, the target named is 4-phenylbutyryl-His-DPhe-Arg-Trp-Gly-Lys. As to the kind of experiment: competition binding.

MC1R, sequence (Q01726 whole entry): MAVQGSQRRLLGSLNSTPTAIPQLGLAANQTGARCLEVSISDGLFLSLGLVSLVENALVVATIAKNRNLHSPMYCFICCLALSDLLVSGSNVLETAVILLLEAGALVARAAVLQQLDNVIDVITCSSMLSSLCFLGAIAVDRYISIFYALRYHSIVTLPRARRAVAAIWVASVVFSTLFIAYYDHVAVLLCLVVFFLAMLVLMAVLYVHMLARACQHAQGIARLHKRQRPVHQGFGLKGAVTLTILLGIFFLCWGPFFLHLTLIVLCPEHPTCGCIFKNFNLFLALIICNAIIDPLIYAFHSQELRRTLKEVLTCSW
MC4R, sequence (P32245 whole entry): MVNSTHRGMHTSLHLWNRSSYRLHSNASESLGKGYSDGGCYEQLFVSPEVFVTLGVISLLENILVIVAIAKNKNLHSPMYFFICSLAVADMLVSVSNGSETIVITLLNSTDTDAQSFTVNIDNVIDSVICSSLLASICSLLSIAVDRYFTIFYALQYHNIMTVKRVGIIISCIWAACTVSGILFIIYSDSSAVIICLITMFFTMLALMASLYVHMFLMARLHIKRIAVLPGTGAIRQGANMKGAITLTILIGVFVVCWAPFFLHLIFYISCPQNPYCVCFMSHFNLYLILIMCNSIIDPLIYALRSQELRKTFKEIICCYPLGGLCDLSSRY
MC5R, sequence (P33032 whole entry): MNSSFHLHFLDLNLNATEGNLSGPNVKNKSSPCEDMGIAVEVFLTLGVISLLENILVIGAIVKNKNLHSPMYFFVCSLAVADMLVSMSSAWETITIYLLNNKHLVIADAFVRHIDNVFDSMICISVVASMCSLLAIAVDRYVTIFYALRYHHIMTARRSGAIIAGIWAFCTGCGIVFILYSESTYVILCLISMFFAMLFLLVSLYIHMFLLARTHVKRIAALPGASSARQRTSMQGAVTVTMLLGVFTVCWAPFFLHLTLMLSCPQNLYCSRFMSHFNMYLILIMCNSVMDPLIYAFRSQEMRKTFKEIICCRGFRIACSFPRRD

As to MC1R (from UniProt Q01726), the Ki is 0.24 nM.
With MC4R (from UniProt P32245), the Ki is 254 nM.
With MC5R (from UniProt P33032), the inhibition constant (Ki) is 46 nM.

A word on the Ki: it is the equilibrium dissociation constant of an inhibitor or competing ligand from its target.
